According to patent US20230256017A1, “METHODS OF MAKING CHIMERIC ANTIGEN RECEPTOR-EXPRESSING CELLS” (Novartis AG, priority 2020, published 2023):

System: T cells
Assay: T cell expansion with cytokines after TCR stimulation (cell surface staining)
Type: cell-based
Conditions: αCD3/αCD28 beads plus indicated cytokine
Experimental: Previously frozen T cells were thawed and contacted with αCD3/αCD28 dynal beads (cell to bead ratio of 1 to 3) in the presence of indicated cytokines at day 0. From day 3, twice more T cell growth media (RPMI1640, 10% FBS, 2 mM L-glutamin, 100 µM non-essential amino acids, 1 mM sodium pyruvate, 10 mM Hepes, 55 µM β-mercaptoethanol, 10% FBS, and 100 U/ml of penicillin-streptomycin) was added to the plate with indicated cytokines (without cytokine, rhIL2 (50 IU/ml, Novartis), IL6 (10 ng/ml, R&D systems), IL7 (10 ng/ml, Peprotech), IL15 (10 ng/ml, Peprotech), and IL21 (10 ng/ml, Peprotech)) at day 3, 5, 6, 9, 12, 15, and 18.
Cells were harvested at indicated time points and then stained with live/dead dye (eFluro780, eBioscience), CD3 (BioLegend, clone#: OKT3), CD4 (BioLegend, clone#: OKT4), CD8 (BD Bioscience, clone#: RPA-T8), CD45RO (BioLegend, clone#: UCHL1), CCR7 (BioLegend, clone#: G043H7), CD27 (BD Horizon, clone#: L128), CD127 (BioLegend, clone#: A019D5), CD57 (BioLegend, clone#: HCD57), CD126 (BioLegend, clon#: UV4), and CD130 (R&D Systems, clone#: 28126) antibodies. The cells were acquired by FACS Fortessa and then FlowJo program was used for data analysis.

B1: IL7: cytokine present during activation of T cells with αCD3αCD28 beads (protein, UniProt P13232 26-177, looked up)
Interleukin-7: DCDIEGKDGKQYESVLMVSIDQLLDSMKEIGSNCLNNEFNFFKRHICDANKEGMFLFRAARKLRQFLKMNSTGDFDLHLLKVSEGTTILLNCTGQVKGRKPAALGEAQPTKSLEENKSLKEQKKLNDLCFLKRLLQEIKTCWNKILMGTKEH
With B1 the T cell expansion was “enhanced T cell expansion”.
